Assay results published in article PMC4616025, “Identification of a phosphinothricin-resistant mutant of rice glutamine synthetase using DNA shuffling” (Scientific Reports, 2015).
Substitutions are numbered along the chain they refer to. In names and notes the source's numbering stands.

Substrate: N[C@@H](CCC(=O)O)C(=O)O
Experiment: purified protein
Assay type: biochemical, Oryza sativa
Settings: general assay: 5 mM ATP, 30 mM hydroxylamine, 50 mM MgCl2, 100 mM Tris-HCl pH 7.5, 37 °C, Km measured as in a cited method

B1: OsGS1S (Oryza sativa Japonica Group) (protein)
chain: MASLTDLVNLNLSDTTEKIIAEYIWIGGSGMDLRSKARTLSGPVTDPSKLPKWNYDGSSTGQAPGEDSEVILYPQAIFKDPFRKGNNILVMCDCYTPAGEPIPTNKRHNAAKIFSSPEVASEEPWYGIEQEYTLLQKDINWPLGWPVGGFPGPQGPYYCGIGADKSFGRDIVDSHYKACLYAGINISGINGEVMPGQWEFQVGPSVGISAGDQVWVARYILERITEIAGVVVSFDPKPIPGDWNGAGAHTNYSTKSMRNDGGYEIIKSAIEKLKLRHKEHISAYGEGNERRLTGRHETADINTFSWGVANRGASVRVGRETEQNGKGYFEDRRPASNMDPYIVTSMIAETTIIWKP
notes: full-length, plant-codon-optimized synthetic gene (PTDS), vector pYM4087 with six-histidine tag, expressed in E. coli BL21(DE3), Ni-NTA purified; forward primer atggcttctctcaccga
Q: Which Km does the source give for B1 here?
A: 1.22 ± 0.011 mM

B2: OsGS1S (Oryza sativa Japonica Group; A63E/R295K/T293A/V193A) (protein)
chain: B1 chain with A63E, V193A, T293A, R295K
notes: as for B1
Q: With B2 as the protein, how does the Km (stated gain) read?
A: 7.99 ± 0.021 mM

B3: OsGS1S (Oryza sativa Japonica Group; R295K) (protein)
chain: B1 chain with R295K
notes: as for B1
Q: How did the Km (stated gain) turn out when B3 was run?
A: 8.04 ± 0.015 mM
